The labels stand for the following.
B1: CPEB3 Ribozyme (parent)
chain: UAACAGGGGGCCACAGCAGAAGCGUUCACGUCGCAGCCCCUGUCAGAUUCUGGUGAAUCUGCGAAUUCUGCUGUAUAUCUC

In this series the parent is B1. The series can be described thus: self-cleavage, relative activity (ratio to wild type); higher = more cleavage; in vitro, sequencing. The gist of the method: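 Libraries of CPEB3 self-cleaving ribozyme mutants came from rounds of error-prone PCR and carried barcodes, which DNA sequencing matched to variants. In vitro transcription used T7 RNA polymerase at 37°C for 5 hours, with a further 15 min in DNase I before EDTA stopped the reaction; the ribozymes cleaved during both steps. The RNA was reverse transcribed with template switching and sequenced on Illumina. Relative activity is the cleaved/total read fraction of a variant divided by that of the unmutated ribozyme, averaged over three batches with at least 5 reads.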
For the variant U25A U60A, the self-cleavage came out at 0.29.
Turning to C11A U49A, the self-cleavage was 0.11.
Turning to A28G U67G, the self-cleavage came out at 0.17.
With G24C U69A, the self-cleavage is 0.
Regarding G19C C40U, the self-cleavage was determined as 0.29.
On to A45G A64G, for which the self-cleavage stood at 0.65.
As to U31C U69C, the self-cleavage turned out to be 0.31.
On to G24A U76C, for which the self-cleavage came out at 0.26.
On to A56C U66C, for which the self-cleavage came to 0.32.
As for C11U G73A, the self-cleavage was 1.25.
Consider U25G U69C, for which the self-cleavage stood at 0.24.
C11G U66C: the self-cleavage was 0.21.
For the variant G8A C23U, the self-cleavage was 0.07.
As for G8U U74G, the self-cleavage came out at 0.17.
Then U1C A15U, with 0.55.
Regarding A2G C37U, the self-cleavage came out at 0.66.
Then A21G C37U, with 0.39; and U26G U58C, with 0.36.
Then U48C U67A, with 0.3.
Then A13U U31C, with 1.01.
Turning to C12U U58A, the self-cleavage amounted to 0.9.
As to A28C C38G, the self-cleavage came out at 0.19.
For G36A U76G, the self-cleavage worked out at 0.4.
On to A45U U74G, for which the self-cleavage was found to be 1.09.
As to A5G A20G, the self-cleavage was found to be 0.54.
For G8A A56U, the self-cleavage stood at 0.38.
Turning to A35G U49C, the self-cleavage amounted to 1.05.
As to A47U U54C, the self-cleavage stood at 0.37.
As for G36C U51C, the self-cleavage is 0.39.
Regarding A3G U25C, the self-cleavage was found to be 0.42.
Turning to C39A A57C, the self-cleavage came to 0.14.
With A21G U58G, the self-cleavage was determined as 0.39.
C29U U78G: the self-cleavage was 0.61.
As for U31A C59U, the self-cleavage is 0.37.
As to G9U U60C, the self-cleavage came out at 0.06.
Turning to C12A U78A, the self-cleavage is 1.21.
With U25G U58A the figure was 0.14.
With A20G the figure was 0.89; with U58A U80A, 0.5; with A28U G42C, 0.28.
For the variant G22A A28U, the self-cleavage turned out to be 0.12.
Then G52C U54G, with 1.12; and G63A U80C, with 0.93; and A2G A21U, with 0.35.
Turning to C34U U43A, the self-cleavage amounted to 0.51.
With A15U U43C, the self-cleavage was found to be 0.41.
For A56U C79A, the self-cleavage was 1.12.
Regarding A5U U80C, the self-cleavage is 1.12.
For the variant C44G U72G, the self-cleavage is 0.2.
Turning to A2U U60C, the self-cleavage worked out at 0.47.
Take A28G C29U: the self-cleavage came to 0.52.
For C71A U72C, the self-cleavage was found to be 0.41.
Then U41C U43A, with 0.72; and G16A A64U, with 0.19.
In the case of U1A U26A, the self-cleavage was 1.02.
Then A3G A56C, with 0.8; and C39A U80A, with 0.3; and A15U G24C, with 0.08.
For the variant A3U C81G, the self-cleavage was determined as 1.21.
Take G30C U43C: the self-cleavage is 0.25.
Regarding G10C U67A, the self-cleavage worked out at 0.17.
Then A56G G70A, with 0.49.
For G61U U69A, the self-cleavage was 0.3.
On to G53A U54C, for which the self-cleavage turned out to be 0.92.
For C4A U58C, the self-cleavage is 0.76.
A64U G70C: the self-cleavage was 0.25.
In the case of G46C U60A, the self-cleavage turned out to be 0.11.
On to A5C A47G, for which the self-cleavage was 0.78.
As to U67C U78A, the self-cleavage was found to be 0.29.
Take A57U U69G: the self-cleavage was 0.44.
G9A U49A: the self-cleavage turned out to be 0.19.
Turning to A21U U72A, the self-cleavage came to 0.26.
Consider U60A C71A, for which the self-cleavage came out at 0.39.
With U25C G73U, the self-cleavage was determined as 0.43.
Then A28U G46A, with 0.46; and U69G U74C, with 0.38.
As for G8A C37A, the self-cleavage was found to be 0.15.
For A5U G10A, the self-cleavage was 0.12.
C32G U54A: the self-cleavage came to 0.19.
Then A45G U67A, with 0.38; and A15U A35U, with 0.51; and U25A A35C, with 0.2.
For the variant A18G C79U, the self-cleavage was determined as 0.9.
C4G G8C: the self-cleavage is 0.66.
With A5C A13G the figure was 1.07; with A18U U78C, 0.38; with U1C U25A, 0.37.
U49C C59U: the self-cleavage was 0.09.
Take A35C U67C: the self-cleavage was determined as 0.23.
For the variant A3G U69A, the self-cleavage amounted to 0.69.
U54C U72C: the self-cleavage was determined as 1.08.
On to G6U A65U, for which the self-cleavage amounted to 0.23.
Consider C40U A56U, for which the self-cleavage was 0.32.
U69A U78G: the self-cleavage was determined as 0.39.
Turning to A20U U48C, the self-cleavage was found to be 0.29.
Then C23G A56G, with 0.23; and U54A A56U, with 0.66; and C37U U54C, with 0.79.
For C27U A57G, the self-cleavage worked out at 0.17.
Consider U58C C81G, for which the self-cleavage is 0.82.
With C17G G33A the figure was 0.24; with C37G U69C, 0.23.
Consider A2G G8A, for which the self-cleavage came out at 0.3.
Then C32U C34U, with 0.19; and A2G A5G, with 0.73.
For the variant U26G U78C, the self-cleavage is 0.3.
In the case of A64G A77U, the self-cleavage stood at 1.03.
As for U26G, the self-cleavage turned out to be 0.31.
As to A28C U76A, the self-cleavage worked out at 0.61.
On to A64U U74C, for which the self-cleavage was 0.6.
With A5U U78A, the self-cleavage was determined as 1.15.
With G24A U26A, the self-cleavage amounted to 0.16.
For A13U C37U, the self-cleavage came out at 1.09.
In the case of A35C U49C, the self-cleavage was found to be 0.4.
With C44G A45U the figure was 0.13; with A47G U60G, 0.41; with G22A, 0.29.
For the variant U31A G63A, the self-cleavage is 0.39.
In the case of G10U U60G, the self-cleavage was found to be 0.31.
Then G9A U41A, with 0.19; and U49A A65U, with 0.47.
Regarding A2C A64U, the self-cleavage came to 0.21.
With A15G C62A the figure was 0.17; with A2U A15G, 0.8.
For the variant A65G U74C, the self-cleavage is 0.79.
Turning to G42A U58C, the self-cleavage worked out at 0.25.
With A2U U25C the figure was 0.37.
Take C39U A56U: the self-cleavage was 0.32.
Then A3U G6A, with 0.62; and C12U A47U, with 0.83; and A15G G16U, with 0.25.
Then A20G G30U, with 0.25; and U1C A56U, with 0.52.
For A64G U78C, the self-cleavage came to 0.77.
Then U1A A3U, with 1.2.
With C44U U54C the figure was 0.32; with C23U C39A, 0.19; with A28U C50G, 0.74.
On to U43G U69C, for which the self-cleavage came to 0.35.
In the case of A5G G33U, the self-cleavage was determined as 0.43.
For A5G G55U, the self-cleavage was determined as 0.26.
Regarding G55U C81U, the self-cleavage is 0.6.
On to U26A U80G, for which the self-cleavage stood at 1.06.
In the case of G8U U69A, the self-cleavage stood at 0.12.
In the case of U31A U76C, the self-cleavage came to 0.48.
Regarding A2G G36A, the self-cleavage turned out to be 0.16.
With A15G C37G the figure was 0.69; with U31C C62U, 0.24.
Turning to U31A U54A, the self-cleavage turned out to be 0.55.
For the variant U25C C79A, the self-cleavage turned out to be 0.35.
Consider G9U U76C, for which the self-cleavage worked out at 0.13.
For the variant A5U U72A, the self-cleavage worked out at 0.71.
Consider G61U U67C, for which the self-cleavage came out at 0.21.
Turning to G6A U66C, the self-cleavage is 0.29.
Consider G63U U80A, for which the self-cleavage stood at 0.98.
For the variant C32A A57G, the self-cleavage is 0.24.
Turning to A45U U48A, the self-cleavage is 0.15.
For the variant A45G U54G, the self-cleavage was found to be 0.56.
With U43A A64G the figure was 1.04; with C17U G30U, 0.09.
With G6A G33U the figure was 0.22; with U49G U58C, 0.2.
For the variant U54G U80C, the self-cleavage amounted to 0.67.
In the case of A5G A47C, the self-cleavage was 0.59.
Turning to C17U U60A, the self-cleavage was found to be 0.23.
Regarding C23A U41C, the self-cleavage was 0.34.
In the case of A28U A65U, the self-cleavage turned out to be 0.33.

Values taken from the RNAGym collection of RNA variant scans (doi:10.1093/nar/gkz1192).
